Tested on: CXCL9, CXCL10, CXCL11, IL-12B, IL-18, IL-6, IFNγ, TNFα
Test: Serum cytokines, Meso Scale Discovery multiplex assays, baseline and C2D1
Format: in vivo, human
Experimental: Soluble biomarkers were retrospectively analyzed in baseline and on-treatment peripheral blood derived samples obtained from a subset of subjects enrolled in the clinical trial of Example 2. Baseline samples were obtained on day 1 of cycle 1 (CID1), prior to administration of any study drugs. On-treatment samples were obtained on day 1 of cycle 2 (C2D1), prior to administration of study drugs on that day.
Blood collected in serum separator tubes was allowed to clot for 30-60 minutes before centrifugation at 1300 g for 10 minutes to separate the serum. Serum was isolated and stored at −80° C. until cytokine analysis. Serum cytokines were quantified in multiplex assays using the Meso Scale Discovery platform following the manufacturer's protocol. Briefly, plates were coated with biotinylated capture antibodies specific to the analyte of interest bound to linkers specific to unique spots in each well of a 96-well plate. Serum samples, assessed in duplicate, were diluted 8-fold to quantify CXCL9, CXCL10, CXCL11 and IL-18 in a U-plex assay, diluted 10-fold to quantify IL-12B in a U-plex assay, and diluted 5-fold to quantify IFNγ, TNFα and IL-6 in the S-plex assay. Samples were incubated on linker/capture antibody-coated plates, followed by detection with a sulfo-tag-labelled antibody for the U-plex assays and a TURBO-tag-labelled antibody for the S-plex assay. For the S-plex assay, additional steps incorporated in the manufacturer's protocol to amplify signal with enhance solution and detection solution were followed. Following addition of read buffer, the electrochemiluminescent signal was measured on a MESO Sector S 600 instrument. Between each step of the protocol plates were washed with 0.05% Tween-PBS. A standard curve was generated for each plate using a 4-parameter logistic fit with 1/y^2 weighting. Cytokine concentrations in samples were interpolated using the standard curve, allowing quantification of the analyte of interest. Fold change from baseline was calculated as a ratio of the cytokine concentration at C2D1 over the cytokine concentration at baseline. A linear mixed model performed on log transformed raw cytokine values with baseline values as covariates assessed the difference in cytokine levels over time and between treatment groups.

B1: zimberelimab (antibody, chains of the INN, looked up, V domains shown)
VH: QLQLQESGPGLVKPSETLTLTCTVSADSISSTTYYWVWIRQPPGKGLEWIGSISYSGSTYYNPSLKSRVTVSVDTSKNQFSLKLNSVAATDTALYYCARHLGYNGRYLPFDYWGQGTLVTVSS
VL: QSALTQPASVSGSPGQSITISCTGTSSDVGFYNYVSWYQQHPGKAPELMIYDVSNRPSGVSDRFSGSKSGNTASLTISGLQAEDEADYYCSSYTSISTWVFGGGTKLTVL
notes: zimberelimab monotherapy 360 mg IV Q3W; anti-PD-1 antibody
CXCL9, Fold change, median (C2D1 over baseline): 2.4 | CXCL10, Fold change, median (C2D1 over baseline): 1.7 | CXCL11, Fold change, median (C2D1 over baseline): 1.6 | IFNγ, Fold change, median (C2D1 over baseline): 1.6 | IL-6, Fold change, median (C2D1 over baseline): 1.0 | IL-12B, Fold change, median (C2D1 over baseline): 1.5 | IL-18, Fold change, median (C2D1 over baseline): 1.2 | TNFα, Fold change, median (C2D1 over baseline): 1.2 | CXCL9, C2D1, median (day 1 of cycle 2, pre-dose): 621 pg/mL | CXCL10, C2D1, median (day 1 of cycle 2, pre-dose): 639 pg/mL | CXCL11, C2D1, median (day 1 of cycle 2, pre-dose): 172 pg/mL | IFNγ, C2D1, median (day 1 of cycle 2, pre-dose): 1100 fg/mL | IL-6, C2D1, median (day 1 of cycle 2, pre-dose): 14385 fg/mL | IL-12B, C2D1, median (day 1 of cycle 2, pre-dose): 284 pg/mL | IL-18, C2D1, median (day 1 of cycle 2, pre-dose): 779 pg/mL | TNFα, C2D1, median (day 1 of cycle 2, pre-dose): 1336 fg/mL

Reference: patent publication US20260266828A1, “BIOMARKERS FOR PREDICTING CANCER TREATMENT EFFICACY” (Arcus Biosciences, Inc., priority 2023, published 2026)
